Test [1] deals with T1, human PD-L1 ECD-His (human, UniProt Q9NZQ7 19-238).
T1 construct: extracellular domain; Analyte in all SPR and BLI runs; also called hPD-L1_ECD-His; hPD-L1 ECD-His; not shown: His tag
The test is described as follows: SPR, 25 C, antibody captured by anti-human IgG Fc, hPD-L1_ECD-His analyte, 1:1 fit. How it is done: Experiments were carried out at 25° C., and measurements were made with serial dilutions of hPD-L1_ECD-His from 55.4 nM to 11.1 nM passing over the captured antibodies in HBS-P+ buffer supplemented with 0.1% (w/v) BSA with a flow rate of […]. All data were analyzed with the evaluation software and curves were fit with a 1:1 Langmuir binding model. Data are representative of two independent experiments performed in duplicate.
In general terms: In SPR one partner is held on a chip, and binding of the other changes the refractive index at the surface.

Test [2] concerns the target T2, human PD-L1 on cells (PHA-activated human T cells); PD-L1-transfected CHO-S cells; A375 melanoma cells; … (human, UniProt Q9NZQ7 19-290).
T2 construct: whole, on cells; also called PD-L1 expressing T cells; PD-L1 expressing CHO-S cells
The test can be described thus: flow cytometry on PHA-activated human CD3+ T cells, FITC-labeled anti-human IgG Fcγ, MFI. How it is done: Human T cells were isolated from PBMC using MagniSortTM Human T Cell Enrichment Kit (eBioscience). Isolated T cells were activated by 5 μg/mL phytohemagglutinin (PHA) for 3 days to stimulate the PD-L1 expression. Activated T cells were collected and incubated in FACS buffer (PBS with 2% FBS) with human Fc blocker (eBioscience) for 20 minutes at 4° C. Binding of anti-PD-L1 monoclonal antibody was assessed by incubating the activated T cells with the serial-diluted antibodies in FACS buffer. The cells were washed with flow buffer and the binding was detected with a FITC-labeled rabbit anti-human IgG FcγAb. Cells were also stained with mouse anti-human CD3 PE-Cy7 (eBioscience) for gating CD3-positive T cells. Flow cytometric analyses were performed using the Cytomics FC 500 (Beckman Coulter Inc.).
For orientation: A flow cytometer gives signals particle by particle.

For test [3], the target named is T3, recombinant human PD-L1/Fc fusion protein (human, UniProt Q9NZQ7 19-238).
T3 construct: also called hPD-L1 ECD-Fc; not shown: Fc part
The test is described as follows: ELISA: human PD-L1/Fc coated (15 ng/well), serially diluted antibody, HRP-conjugated secondary antibody, TMB, A450. The method, then: ELISA assays were performed to assess the binding of selected antibodies to recombinant human PD-L1/Fc fusion proteins. Fifteen nanograms per well of human PD-L1/Fc proteins were coated on 96-well EIA microplate overnight at 4° C. After blocking with 5% skim milk, serially diluted antibodies were added and incubated at RT for 1 hour. The unbound antibodies were removed and wells were washed with PBST twice. The HRP-conjugated secondary antibody was added to the wells, and, following an incubation, excess secondary antibody was washed away. TMB was added to the wells, and following incubation, the reaction was stopped, and HRP activity was measured by monitoring the increase in absorbance at 450 nm.

Test [4] concerns the target T2, human PD-L1 on cells (PHA-activated …). The test can be described thus: flow cytometry blocking assay: PD-L1 expressing CHO-S cells incubated with antibody, then biotin-labeled PD-1-Fc and streptavidin-PE; MFI of bound PD-1. How it is done: PD-L1 expressing CHO-S cells were suspended in FACS buffer (PBS with 4% FBS). Various concentrations of tested antibodies were added to the cell suspension (3.5E5 cells/well) and incubated at 4° C. for 30 minutes. […] The cells were washed and then stained with streptavidin-PE at 4° C. for 30 minutes. Flow cytometric analyses were performed using the Cytomics FC 500 (Beckman Coulter Inc.).
Anti-PD-L1 reference antibody and Avastin were used as the positive and negative control, respectively.

Test [5] has the same target. The test is described as follows: flow cytometry on A375 human melanoma cells, biotin-labeled anti-human IgG Fcγ and streptavidin-PE, MFI.
The target is the same in test [6]. The test can be described thus: flow cytometry on NCI-H292 human NSCLC cells, biotin-labeled anti-human IgG Fcγ and streptavidin-PE, MFI.
For test [7] the target is unchanged. The test can be described thus: flow cytometry on PHA-activated human T cells, biotin-labeled anti-human IgG Fcγ and streptavidin-PE, MFI.

T1 sequence (Q9NZQ7 19-238): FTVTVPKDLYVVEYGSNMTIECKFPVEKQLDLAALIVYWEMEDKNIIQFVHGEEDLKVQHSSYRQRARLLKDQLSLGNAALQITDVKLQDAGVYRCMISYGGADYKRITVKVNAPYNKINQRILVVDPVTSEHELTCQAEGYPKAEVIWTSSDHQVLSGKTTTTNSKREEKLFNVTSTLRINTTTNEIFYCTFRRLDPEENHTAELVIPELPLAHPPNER
T2 sequence (Q9NZQ7 19-290): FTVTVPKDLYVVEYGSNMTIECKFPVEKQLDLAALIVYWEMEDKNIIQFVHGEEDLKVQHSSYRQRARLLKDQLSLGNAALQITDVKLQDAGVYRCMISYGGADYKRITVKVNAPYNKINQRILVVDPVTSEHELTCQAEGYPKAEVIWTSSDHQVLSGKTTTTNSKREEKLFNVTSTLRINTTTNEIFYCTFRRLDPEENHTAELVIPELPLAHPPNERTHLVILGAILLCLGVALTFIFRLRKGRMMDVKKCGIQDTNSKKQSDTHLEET
T3 sequence (Q9NZQ7 19-238 limits assumed): as the sequence (Q9NZQ7 19-238) above

B1: PL2 (full-length, N297A mutant human IgG1) (antibody, V domains shown)
VH: EVQLVQSGGGLVKPGGSLRLSCAASGFTFSSYTMNWVRQAPGKGLEWVSSISSGSDYLYYADSVKGRFTISRDNAKNSLYLQMNSLRAEDTAVYYCARNELRWYPQAGAFDIWGQGTMVTVSS
VL: QSVVTQPPSMSAAPGQNVTISCSGSSSYIESSYVSWYQQLPGTAPRLLIYDDDMRPSGIPDRFSGSKSGTSATLAITGLQTGDEADYYCEIWDSGLGGVFGGGTKLTVLS
The Kd is the constant that tells how readily two partners part at equilibrium. High values mean lower affinity, low ones higher affinity. The koff is the rate constant with which the complex falls apart. High values mean a short-lived complex, low ones a long-lived complex. As a reminder, the kon is the second-order rate constant of association. Low values mean slow association, high ones fast association. The EC50 (read off the curve) is the concentration needed to bring the measured effect to its halfway point. Turning to B1, in test [1], the Kd came out at 8.72 nM, the koff stood at 0.0039 s⁻¹ and the kon turned out to be 438000 M⁻¹ s⁻¹. Further, the “EC50 (read off the curve)” value in test [2] was around 0.005 µg/mL. In addition, the “EC50 (read off the curve)” value in test [3] is around 0.009 µg/mL. Besides, the “IC50 (read off the curve)” value in test [4] was around 0.05 µg/mL.

B2: anti-PD-L1 ref-2 (IgG2) (antibody, V domains shown)
VH: EVQLVESGGGLVKPGGSLRLSCAASGFTFSSYGMSWVRQAPGKGLEWVATINSGGSNTYYPDSLKGRFTISRDNAKNSLYLQMNSLRAEDTAVYYCARHDGGAMDYWGQGTTVTVSS
VL: DIQMTQSPSSLSASVGDRVTITCRASESIYSYLAWYQQKPGKAPKLLVYNTKTLPEGVPSRFSGSGSGTDFTLTISSLQPEDFATYYCQHHYGTPPWTFGQGTRLEIK
Take B2: the “EC50 (read off the curve)” value was around 0.005 µg/mL in test [2], around 0.002 µg/mL in test [5], around 0.01 µg/mL in test [6] and around 0.004 µg/mL in test [7]. The “IC50 (read off the curve)” value in test [4] is around 0.2 µg/mL.

B3: PL3 (full-length, N297A mutant human IgG1) (antibody, V domains shown)
VH: QVQLVQSGAEVKKPGSSVKVSCKASGGTFSSYTISWVRQAPGQGLEWMGRIIPILGIANYAQKFQGRVTITADKSTSTAYMELSSLRSEDTAVYYCARSRDGYSFGAFDIWGQGTLVTVSS
VL: QSVVTQPPPVSGAPGQRVTISCTGSSSNIGAGYDVHWYQQLPGTAPKLLIYGNSNRPSGVPDRFSGSKSGTSASLAITGLQAEDEADYYCQSYDSSLSAPVVFGGGTKLTVLG
In test [1], B3 yielded a Kd of 11.9 nM, a koff of 0.0041 s⁻¹ and a kon of 348000 M⁻¹ s⁻¹. Besides, the concentration giving a half-maximal response (EC50 (read off the curve)) in test [2] is around 0.04 µg/mL. For the same molecule, in test [3], the “EC50 (read off the curve)” value is around 0.02 µg/mL. The “IC50 (read off the curve)” value in test [4] was around 0.1 µg/mL.
